Source: PMC4317571

Legend:
[1] = molecular target: p53 K382ac peptide (Homo sapiens) (UniProt P04637); conditions: cited from earlier work
[2] = molecular target: tandem Tudor domain (TTD) of p53-binding protein 1 (53BP1), wild type (UniProt Q12888); assay: other fluorescence titration + NMR titration
bromodomain (BD) of p300 = assay: NMR titration
[3] = molecular target: tandem Tudor domain (TTD) of p53-binding protein 1 (53BP1), wild type (UniProt Q12888); assay: other fluorescence titration

Row | Substance | Kd [1] [µM] | Kd [2] [µM] | Kd (bromodomain (BD) of p300) [µM] | Kd [3] [µM]
1 | CBP bromodomain (from UniProt Q92793) | 187 |  |  | 
2 | p53K381ac peptide (p53 acetylated at K381) (from UniProt P04637 377-386) |  | > 5000 | 241 | 
3 | p53K381acK382me2 peptide (p53 acetylated at K381 and dimethylated at K382) (from UniProt P04637 377-386) |  |  | 282 | 0.76
